Data published in publication PMC10786891, “Massively parallel profiling of RNA-targeting CRISPR-Cas13d”.

T1: EsCas13d, nuclease-dead (Eubacterium siraeum, UniProt B0MS50, R295A;H300A;R849A;H854A)
T1 sequence: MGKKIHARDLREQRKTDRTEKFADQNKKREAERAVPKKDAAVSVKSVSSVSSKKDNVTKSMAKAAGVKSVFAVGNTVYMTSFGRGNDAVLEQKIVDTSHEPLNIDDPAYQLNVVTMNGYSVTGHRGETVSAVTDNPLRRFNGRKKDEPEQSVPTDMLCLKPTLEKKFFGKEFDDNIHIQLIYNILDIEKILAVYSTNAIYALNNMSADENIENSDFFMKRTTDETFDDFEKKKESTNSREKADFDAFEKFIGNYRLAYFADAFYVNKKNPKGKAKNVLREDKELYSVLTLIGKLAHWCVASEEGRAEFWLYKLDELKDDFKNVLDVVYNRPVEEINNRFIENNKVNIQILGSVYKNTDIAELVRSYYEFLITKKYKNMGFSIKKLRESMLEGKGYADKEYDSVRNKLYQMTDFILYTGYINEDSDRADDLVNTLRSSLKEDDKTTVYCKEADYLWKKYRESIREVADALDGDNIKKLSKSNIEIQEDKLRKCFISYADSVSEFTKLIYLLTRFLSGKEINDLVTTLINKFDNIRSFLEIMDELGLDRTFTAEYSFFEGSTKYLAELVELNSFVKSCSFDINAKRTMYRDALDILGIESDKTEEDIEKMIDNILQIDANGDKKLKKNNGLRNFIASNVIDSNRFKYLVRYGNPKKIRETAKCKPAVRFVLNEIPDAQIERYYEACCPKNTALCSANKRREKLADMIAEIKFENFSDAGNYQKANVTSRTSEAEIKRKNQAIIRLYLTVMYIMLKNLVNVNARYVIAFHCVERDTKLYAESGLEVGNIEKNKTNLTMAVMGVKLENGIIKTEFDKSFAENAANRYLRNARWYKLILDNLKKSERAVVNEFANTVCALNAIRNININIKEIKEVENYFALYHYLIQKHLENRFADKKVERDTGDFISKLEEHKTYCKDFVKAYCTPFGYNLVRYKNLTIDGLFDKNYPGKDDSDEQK


Target: T1, EsCas13d, nuclease-dead
Test: crRNA (strand 1, pre-loaded); Mg2+; 40 mM Tris-HCl pH 7.5, 150 mM NaCl, 6 mM MgCl2, 1 mM DTT, 0.1% Tween-20, 0.2 mg/ml BSA; 25 C; 10 min per concentration, then washed
Details: tags: His6-TwinStrep-SUMO cleaved; N-terminal SNAP kept (SNAP-Surface 488); label: 3' end held by stalled T7 RNA polymerase

Row | Binder | Kd
1 | target 1 A9U,A20U (mixed) RNA 1: CACCCGUGCAAAAAUGCAGGGGUCUAAAACUGAGCGGAUAACCUCUCUAUGG RNA 2: GGGAAUGGAUCCACAUCUACGAAUUCGUACCUUAGAGAGGUUUUCCGCUCACCGAGAUCGGAAGAGCACACGU | 43 ± 4 nM
2 | target 1 U10G,A16G (mixed) RNA 1: CACCCGUGCAAAAAUGCAGGGGUCUAAAACUGAGCGGAUAACCUCUCUAUGG RNA 2: GGGAAUGGAUCCACAUCUACGAAUUCGUACCAUAGGGAGGUGAUCCGCUCACCGAGAUCGGAAGAGCACACGU | 42.2 ± 3.5 nM
3 | target 1 insA 3' of 8,insA 3' of 4 (mixed) RNA 1: CACCCGUGCAAAAAUGCAGGGGUCUAAAACUGAGCGGAUAACCUCUCUAUGG RNA 2: GGGAAUGGAUCCACAUCUACGAAUUCGUACCAUAGAGAGGUUAUACCGCAUCACCGAGAUCGGAAGAGCACACGU | 8.4 ± 0.5 nM
4 | target 1 G12C,C21A (mixed) RNA 1: CACCCGUGCAAAAAUGCAGGGGUCUAAAACUGAGCGGAUAACCUCUCUAUGG RNA 2: GGGAAUGGAUCCACAUCUACGAAUUCGUACAAUAGAGAGCUUAUCCGCUCACCGAGAUCGGAAGAGCACACGU | 58 ± 11 nM
5 | target 1 insC 3' of 15,insU 3' of 14 (mixed) RNA 1: CACCCGUGCAAAAAUGCAGGGGUCUAAAACUGAGCGGAUAACCUCUCUAUGG RNA 2: GGGAAUGGAUCCACAUCUACGAAUUCGUACCAUAGAGCAUGGUUAUCCGCUCACCGAGAUCGGAAGAGCACACGU | 28.5 ± 2.3 nM
6 | target 1 G15A,A18U (mixed) RNA 1: CACCCGUGCAAAAAUGCAGGGGUCUAAAACUGAGCGGAUAACCUCUCUAUGG RNA 2: GGGAAUGGAUCCACAUCUACGAAUUCGUACCAUUGAAAGGUUAUCCGCUCACCGAGAUCGGAAGAGCACACGU | 58 ± 11 nM
7 | target 1 insG 3' of 7 (mixed) RNA 1: CACCCGUGCAAAAAUGCAGGGGUCUAAAACUGAGCGGAUAACCUCUCUAUGG RNA 2: GGGAAUGGAUCCACAUCUACGAAUUCGUACCAUAGAGAGGUUAUCGCGCUCACCGAGAUCGGAAGAGCACACGU | 5.5 ± 0.16 nM
8 | target 1 insU 3' of 15,insC 3' of 3 (mixed) RNA 1: CACCCGUGCAAAAAUGCAGGGGUCUAAAACUGAGCGGAUAACCUCUCUAUGG RNA 2: GGGAAUGGAUCCACAUCUACGAAUUCGUACCAUAGAGUAGGUUAUCCGCUCCACCGAGAUCGGAAGAGCACACGU | 11.6 ± 1.1 nM
9 | target 1 insA 3' of 19,insC 3' of 5 (mixed) RNA 1: CACCCGUGCAAAAAUGCAGGGGUCUAAAACUGAGCGGAUAACCUCUCUAUGG RNA 2: GGGAAUGGAUCCACAUCUACGAAUUCGUACCAUAAGAGAGGUUAUCCGCCUCACCGAGAUCGGAAGAGCACACGU | 48 ± 8 nM
10 | target 1 A1G,C6U (mixed) RNA 1: CACCCGUGCAAAAAUGCAGGGGUCUAAAACUGAGCGGAUAACCUCUCUAUGG RNA 2: GGGAAUGGAUCCACAUCUACGAAUUCGUACCAUAGAGAGGUUAUCUGCUCGCCGAGAUCGGAAGAGCACACGU | 8.9 ± 0.7 nM
11 | target 1 insU 3' of 17,insC 3' of 17 (mixed) RNA 1: CACCCGUGCAAAAAUGCAGGGGUCUAAAACUGAGCGGAUAACCUCUCUAUGG RNA 2: GGGAAUGGAUCCACAUCUACGAAUUCGUACCAUAGUCAGAGGUUAUCCGCUCACCGAGAUCGGAAGAGCACACGU | 36 ± 5 nM
12 | target 1 insU 3' of 20,insG 3' of 3 (mixed) RNA 1: CACCCGUGCAAAAAUGCAGGGGUCUAAAACUGAGCGGAUAACCUCUCUAUGG RNA 2: GGGAAUGGAUCCACAUCUACGAAUUCGUACCAUUAGAGAGGUUAUCCGCUGCACCGAGAUCGGAAGAGCACACGU | 9.4 ± 0.6 nM
13 | target 1 C2A,G15U (mixed) RNA 1: CACCCGUGCAAAAAUGCAGGGGUCUAAAACUGAGCGGAUAACCUCUCUAUGG RNA 2: GGGAAUGGAUCCACAUCUACGAAUUCGUACCAUAGAUAGGUUAUCCGCUAACCGAGAUCGGAAGAGCACACGU | 29 ± 5 nM
14 | target 1 insU 3' of 17,insU 3' of 9 (mixed) RNA 1: CACCCGUGCAAAAAUGCAGGGGUCUAAAACUGAGCGGAUAACCUCUCUAUGG RNA 2: GGGAAUGGAUCCACAUCUACGAAUUCGUACCAUAGUAGAGGUUAUUCCGCUCACCGAGAUCGGAAGAGCACACGU | 40 ± 8 nM
15 | target 1 C7A,U19C (mixed) RNA 1: CACCCGUGCAAAAAUGCAGGGGUCUAAAACUGAGCGGAUAACCUCUCUAUGG RNA 2: GGGAAUGGAUCCACAUCUACGAAUUCGUACCACAGAGAGGUUAUACGCUCACCGAGAUCGGAAGAGCACACGU | 33.2 ± 3.5 nM
16 | target 1 complement block 4-6 (mixed) RNA 1: CACCCGUGCAAAAAUGCAGGGGUCUAAAACUGAGCGGAUAACCUCUCUAUGG RNA 2: GGGAAUGGAUCCACAUCUACGAAUUCGUACCAUAGAGAGGUUAUCGCGUCACCGAGAUCGGAAGAGCACACGU | 4.95 ± 0.15 nM
17 | target 1 U3C,G12A (mixed) RNA 1: CACCCGUGCAAAAAUGCAGGGGUCUAAAACUGAGCGGAUAACCUCUCUAUGG RNA 2: GGGAAUGGAUCCACAUCUACGAAUUCGUACCAUAGAGAGAUUAUCCGCCCACCGAGAUCGGAAGAGCACACGU | 11.1 ± 1.1 nM
18 | target 1 insC 3' of 19,insG 3' of 6 (mixed) RNA 1: CACCCGUGCAAAAAUGCAGGGGUCUAAAACUGAGCGGAUAACCUCUCUAUGG RNA 2: GGGAAUGGAUCCACAUCUACGAAUUCGUACCAUCAGAGAGGUUAUCCGGCUCACCGAGAUCGGAAGAGCACACGU | 32 ± 4 nM
19 | target 1 insC 3' of 19,insG 3' of 2 (mixed) RNA 1: CACCCGUGCAAAAAUGCAGGGGUCUAAAACUGAGCGGAUAACCUCUCUAUGG RNA 2: GGGAAUGGAUCCACAUCUACGAAUUCGUACCAUCAGAGAGGUUAUCCGCUCGACCGAGAUCGGAAGAGCACACGU | 33 ± 5 nM
20 | target 1 A1C,C6U (mixed) RNA 1: CACCCGUGCAAAAAUGCAGGGGUCUAAAACUGAGCGGAUAACCUCUCUAUGG RNA 2: GGGAAUGGAUCCACAUCUACGAAUUCGUACCAUAGAGAGGUUAUCUGCUCCCCGAGAUCGGAAGAGCACACGU | 9.2 ± 0.9 nM
21 | target 1 insA 3' of 12,insG 3' of 9 (mixed) RNA 1: CACCCGUGCAAAAAUGCAGGGGUCUAAAACUGAGCGGAUAACCUCUCUAUGG RNA 2: GGGAAUGGAUCCACAUCUACGAAUUCGUACCAUAGAGAGGAUUAGUCCGCUCACCGAGAUCGGAAGAGCACACGU | 46.9 ± 3.5 nM
22 | target 1 insA 3' of 21,insA 3' of 10 (mixed) RNA 1: CACCCGUGCAAAAAUGCAGGGGUCUAAAACUGAGCGGAUAACCUCUCUAUGG RNA 2: GGGAAUGGAUCCACAUCUACGAAUUCGUACCAAUAGAGAGGUUAAUCCGCUCACCGAGAUCGGAAGAGCACACGU | 28.2 ± 2.4 nM
23 | target 1 insC 3' of 22,insU 3' of 7 (mixed) RNA 1: CACCCGUGCAAAAAUGCAGGGGUCUAAAACUGAGCGGAUAACCUCUCUAUGG RNA 2: GGGAAUGGAUCCACAUCUACGAAUUCGUACCCAUAGAGAGGUUAUCUCGCUCACCGAGAUCGGAAGAGCACACGU | 47 ± 8 nM
24 | target 1 A18C,C21A (mixed) RNA 1: CACCCGUGCAAAAAUGCAGGGGUCUAAAACUGAGCGGAUAACCUCUCUAUGG RNA 2: GGGAAUGGAUCCACAUCUACGAAUUCGUACAAUCGAGAGGUUAUCCGCUCACCGAGAUCGGAAGAGCACACGU | 88 ± 23 nM
